Results from paper doi:10.1101/2025.06.14.659634 (bioRxiv, 2025).

What was measured:
[1] = target: the molecule itself; test: glycerol density gradient centrifugation
cryo-EM structure = target: the molecule itself; test: cryo-EM structure

B1: erlin2 with a C-terminal Flag tag, overexpressed alone (natural protein, human, UniProt O94905 1-339, looked up)
chain: MAQLGAVVAVASSFFCASLFSAVHKIEEGHIGVYYRGGALLTSTSGPGFHLMLPFITSYKSVQTTLQTDEVKNVPCGTSGGVMIYFDRIEVVNFLVPNAVYDIVKNYTADYDKALIFNKIHHELNQFCSVHTLQEVYIELFDQIDENLKLALQQDLTSMAPGLVIQAVRVTKPNIPEAIRRNYELMESEKTKLLIAAQKQKVVEKEAETERKKALIEAEKVAQVAEITYGQKVMEKETEKKISEIEDAAFLAREKAKADAECYTAMKIAEANKLKLTPEYLQLMKYKAIASNSKIYFGKDIPNMFMDSAGSVSKQFEGLADKLSFGLEDEPLETATKEN
binding result [1]: binds

B2: erlin1 with a C-terminal Flag tag, overexpressed alone (natural protein, human, UniProt O75477 1-348, looked up)
chain: MNMTQARVLVAAVVGLVAVLLYASIHKIEEGHLAVYYRGGALLTSPSGPGYHIMLPFITTFRSVQTTLQTDEVKNVPCGTSGGVMIYIDRIEVVNMLAPYAVFDIVRNYTADYDKTLIFNKIHHELNQFCSAHTLQEVYIELFDQIDENLKQALQKDLNLMAPGLTIQAVRVTKPKIPEAIRRNFELMEAEKTKLLIAAQKQKVVEKEAETERKKAVIEAEKIAQVAKIRFQQKVMEKETEKRISEIEDAAFLAREKAKADAEYYAAHKYATSNKHKLTPEYLELKKYQAIASNSKIYFGSNIPNMFVDSSCALKYSDIRTGRESSLPSKEALEPSGENVIQNKESTG
binding result [1]: binds

B3: erlin1 fused with a twin-Strep tag, co-expressed with erlin2 through a P2A sequence (natural protein, human, UniProt O75477 1-348, looked up)
chain: B2 chain
modifications: N108 glycosylated (seen in the density map); intramolecular disulfide bond C78-C130
binding result (cryo-EM structure): binds
